# B1: σ1 of reovirus strain rsT3D-σ1T249I (parent), on purified virions [mammalian orthoreovirus, strain type 3 Dearing GST-JAM-A ectodomain fusion protein [not stated] (parent)
# chain 1: MDPRLREEVVRLIIALTSDNGASLSKGLESRVSALEKTSQIHSDTILRITQGLDDANKRIIALEQSRDDLVASVSDAQLAISRLESSIGALQTVVNGLDSSVTQLGARVGQLETGLAELRVDHDNLVARVDTAERNIGSLTTELSTLTLRVTSIQADFESRISTLERTAVTSAGAPLSIRNNRMTMGLNDGLTLSGNNLAIRLPGNTGLNIQNGGLQFRFNTDQFQIVNNNLTLKTTVFDSINSRIGAIEQSYVASAVTPLRLNSSTKVLDMLIDSSTLEINSSGQLTVRSTSPNLRYPIADVSGGIGMSPNYRFRQSMWIGIVSYSGSGLNWRVQVNSDIFIVDDYIHICLPAFDGFSIADGGDLSLNFVTGLLPPLLTGDTEPAFHNDVVTYGAQTVAIGLSSGGAPQYMSKNLWVEQWQDGVLRLRVEGGGSITHSNSKWPAMTVSYPRSFT
# chain 2: SVTVHSSEPEVRIPENNPVKLSCAYSGFSSPRVEWKFDQGDTTRLVCYNNKITASYEDRVTFLPTGITFKSVTREDTGTYTCMVSEEGGNSYGEVKVKLIVLVPPSKPTVNIPSSATIGNRAVLTCSEQDGSPPSEYTWFKDGIVMPTNPKSTRAFSNSSYVLNPTTGELVFDPLSASDTGEYSCEARNGYGTPMTSNAVRMEAVERNVGV
# Variants of: B1
# Assay: SPR
# Settings: with GST-JAM-A ectodomain fusion protein, GST-JAM-A captured on biosensor surface, read off a plot
# [1] = 6×1012 (green) particles/ml virus, parent: 62
# [2] = 8×1012 (orange) particles/ml virus, parent: 98
# [3] = 1013 (red) particles/ml virus, parent: 205
Variant,response [1],response [2],response [3]
chain 1 E384A,140 RU,280 RU,460 RU
chain 1 G381A,17 RU,28 RU,36 RU

# Reference: paper PMC2588538, “Structure of Reovirus σ1 in Complex with Its Receptor Junctional Adhesion Molecule-A” (PLoS Pathogens, 2008)
